Assay results taken from patent US20260317437 (published 2026).
Where two headings read alike, the source gives them in different places.

How the values were obtained:
Assay in all cases: SPR
[1] = target: T1, GCGR extracellular domain (human, UniProt P47871)
[2] = target: T1, GCGR extracellular domain; remark: listed apart in the source
[3] = target: T1, GCGR extracellular domain; remark: listed apart in the source
[4] = target: T1, GCGR extracellular domain; remark: listed apart in the source

T1 sequence (P47871 26-477): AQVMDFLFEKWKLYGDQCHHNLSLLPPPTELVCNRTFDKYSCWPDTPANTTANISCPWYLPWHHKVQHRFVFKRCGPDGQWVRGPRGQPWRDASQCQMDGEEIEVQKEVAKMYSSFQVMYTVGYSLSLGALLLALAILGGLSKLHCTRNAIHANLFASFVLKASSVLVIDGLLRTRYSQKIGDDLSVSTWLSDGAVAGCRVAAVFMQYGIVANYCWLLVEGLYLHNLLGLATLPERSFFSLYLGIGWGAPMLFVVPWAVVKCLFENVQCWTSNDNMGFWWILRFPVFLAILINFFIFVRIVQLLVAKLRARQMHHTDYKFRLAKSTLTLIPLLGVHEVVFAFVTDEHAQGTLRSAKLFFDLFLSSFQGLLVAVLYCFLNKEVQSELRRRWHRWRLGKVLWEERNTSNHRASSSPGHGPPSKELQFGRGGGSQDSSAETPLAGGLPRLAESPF

B1: VH Y30H (antibody, V domains shown)
VH: EVQLVESGGGLVQPGGSLRLSCAASGFNIHYNYIHWVRQAPGKGLEWVAEFSPYSGSTYYADSVKGRFTISADTSKNTAYLQMNSLRAEDTAVYYCARSAAIVDWYDYFKGFDYWGQGTLVTVSS
VL: DIQMTQSPSSLSASVGDRVTITCRASQSVSSAVAWYQQKPGKAPKLLIYSASSLYSGVPSRFSGSRSGTDFTLTISSLQPEDFATYYCQQYGSYLYTFGQGTKVEIK
Kd [1]: 5.14 nM
Kd [2]: 5.14 nM

B2: VH W100aV (antibody, V domains shown)
VH: EVQLVESGGGLVQPGGSLRLSCAASGFNIYYNYIHWVRQAPGKGLEWVAEFSPYSGSTYYADSVKGRFTISADTSKNTAYLQMNSLRAEDTAVYYCARSAAIVDVYDYFKGFDYWGQGTLVTVSS
VL: DIQMTQSPSSLSASVGDRVTITCRASQSVSSAVAWYQQKPGKAPKLLIYSASSLYSGVPSRFSGSRSGTDFTLTISSLQPEDFATYYCQQYGSYLYTFGQGTKVEIK
Kd [1]: 5.88 nM
Kd [2]: 5.88 nM

B3: VH Y31A (antibody, V domains shown)
VH: EVQLVESGGGLVQPGGSLRLSCAASGFNIYANYIHWVRQAPGKGLEWVAEFSPYSGSTYYADSVKGRFTISADTSKNTAYLQMNSLRAEDTAVYYCARSAAIVDWYDYFKGFDYWGQGTLVTVSS
VL: DIQMTQSPSSLSASVGDRVTITCRASQSVSSAVAWYQQKPGKAPKLLIYSASSLYSGVPSRFSGSRSGTDFTLTISSLQPEDFATYYCQQYGSYLYTFGQGTKVEIK
binding result [3]: no binding
Kd [4]: 206 nM

B4: VL Y94K (antibody, V domains shown)
VH: EVQLVESGGGLVQPGGSLRLSCAASGFNIYYNYIHWVRQAPGKGLEWVAEFSPYSGSTYYADSVKGRFTISADTSKNTAYLQMNSLRAEDTAVYYCARSAAIVDWYDYFKGFDYWGQGTLVTVSS
VL: DIQMTQSPSSLSASVGDRVTITCRASQSVSSAVAWYQQKPGKAPKLLIYSASSLYSGVPSRFSGSRSGTDFTLTISSLQPEDFATYYCQQYGSKLYTFGQGTKVEIK
Kd [1]: 1.6 nM
Kd [2]: 1.6 nM

B5: anti-GCGR IgG1 parent (antibody, V domains shown)
VH: EVQLVESGGGLVQPGGSLRLSCAASGFNIYYNYIHWVRQAPGKGLEWVAEFSPYSGSTYYADSVKGRFTISADTSKNTAYLQMNSLRAEDTAVYYCARSAAIVDWYDYFKGFDYWGQGTLVTVSS
VL: DIQMTQSPSSLSASVGDRVTITCRASQSVSSAVAWYQQKPGKAPKLLIYSASSLYSGVPSRFSGSRSGTDFTLTISSLQPEDFATYYCQQYGSYLYTFGQGTKVEIK
Kd [1]: 2.53 nM
Kd [4]: 0.61 nM
Kd [2]: 2.53 nM

B6: VH Y100bH (antibody, V domains shown)
VH: EVQLVESGGGLVQPGGSLRLSCAASGFNIYYNYIHWVRQAPGKGLEWVAEFSPYSGSTYYADSVKGRFTISADTSKNTAYLQMNSLRAEDTAVYYCARSAAIVDWHDYFKGFDYWGQGTLVTVSS
VL: DIQMTQSPSSLSASVGDRVTITCRASQSVSSAVAWYQQKPGKAPKLLIYSASSLYSGVPSRFSGSRSGTDFTLTISSLQPEDFATYYCQQYGSYLYTFGQGTKVEIK
Kd [1]: 2.9 nM
Kd [2]: 2.9 nM

B7: VH W100aF (antibody, V domains shown)
VH: EVQLVESGGGLVQPGGSLRLSCAASGFNIYYNYIHWVRQAPGKGLEWVAEFSPYSGSTYYADSVKGRFTISADTSKNTAYLQMNSLRAEDTAVYYCARSAAIVDFYDYFKGFDYWGQGTLVTVSS
VL: DIQMTQSPSSLSASVGDRVTITCRASQSVSSAVAWYQQKPGKAPKLLIYSASSLYSGVPSRFSGSRSGTDFTLTISSLQPEDFATYYCQQYGSYLYTFGQGTKVEIK
Kd [1]: 5.2 nM
Kd [2]: 5.2 nM

B8: VH W100aL (antibody, V domains shown)
VH: EVQLVESGGGLVQPGGSLRLSCAASGFNIYYNYIHWVRQAPGKGLEWVAEFSPYSGSTYYADSVKGRFTISADTSKNTAYLQMNSLRAEDTAVYYCARSAAIVDLYDYFKGFDYWGQGTLVTVSS
VL: DIQMTQSPSSLSASVGDRVTITCRASQSVSSAVAWYQQKPGKAPKLLIYSASSLYSGVPSRFSGSRSGTDFTLTISSLQPEDFATYYCQQYGSYLYTFGQGTKVEIK
Kd [1]: 5.24 nM
Kd [2]: 5.24 nM

B9: VH Y100bQ (antibody, V domains shown)
VH: EVQLVESGGGLVQPGGSLRLSCAASGFNIYYNYIHWVRQAPGKGLEWVAEFSPYSGSTYYADSVKGRFTISADTSKNTAYLQMNSLRAEDTAVYYCARSAAIVDWQDYFKGFDYWGQGTLVTVSS
VL: DIQMTQSPSSLSASVGDRVTITCRASQSVSSAVAWYQQKPGKAPKLLIYSASSLYSGVPSRFSGSRSGTDFTLTISSLQPEDFATYYCQQYGSYLYTFGQGTKVEIK
Kd [1]: 6.08 nM
Kd [2]: 6.08 nM

B10: VH Y100bR (antibody, V domains shown)
VH: EVQLVESGGGLVQPGGSLRLSCAASGFNIYYNYIHWVRQAPGKGLEWVAEFSPYSGSTYYADSVKGRFTISADTSKNTAYLQMNSLRAEDTAVYYCARSAAIVDWRDYFKGFDYWGQGTLVTVSS
VL: DIQMTQSPSSLSASVGDRVTITCRASQSVSSAVAWYQQKPGKAPKLLIYSASSLYSGVPSRFSGSRSGTDFTLTISSLQPEDFATYYCQQYGSYLYTFGQGTKVEIK
Kd [1]: 7.08 nM
Kd [2]: 7.08 nM

B11: VH Y100bK (antibody, V domains shown)
VH: EVQLVESGGGLVQPGGSLRLSCAASGFNIYYNYIHWVRQAPGKGLEWVAEFSPYSGSTYYADSVKGRFTISADTSKNTAYLQMNSLRAEDTAVYYCARSAAIVDWKDYFKGFDYWGQGTLVTVSS
VL: DIQMTQSPSSLSASVGDRVTITCRASQSVSSAVAWYQQKPGKAPKLLIYSASSLYSGVPSRFSGSRSGTDFTLTISSLQPEDFATYYCQQYGSYLYTFGQGTKVEIK
Kd [1]: 7.75 nM
Kd [2]: 7.75 nM
